Laboratory results from publication PMC9802656 (Science Translational Medicine, 2022).

B1: monoclonal antibody m31A7 (IgG) (antibody, V domains shown)
VH: EVQLQQSGPEMVKPGASVKISCKTSGYTFTEYTIYWVKQSHGKSLEWLGGINPNIGDTTYNQKFKGKATLTVDTSSSTAYMELRSLTSEDSAVYYCAREVYNYSFAYWGQGTLVTVSA
VL: DIVMSQSPSSLAVSVGEKVTMSCKSSQSLLYSSNQKNYLAWYQQKLGQTPKLLIYWASSRESGVPDRFTGSGSGTDFTLTISSVRAEDLAVYYCQQYYRYPLTFGVGTKLELK
B2: m31A7 Fab (Fab, V domains shown)
VH: B1 VH
VL: B1 VL

Experiments:
[1] = molecular target: SARS-CoV-2 S protein S1 (SARS-CoV-2, ancestral (WT), UniProt P0DTC2); assay: ELISA; settings: both partners purified
[2] = molecular target: SARS-CoV-2 S protein receptor binding domain (RBD) (SARS-CoV-2, ancestral (WT), UniProt P0DTC2); assay: crystal structure; settings: both partners purified

| Binder | binding result [1] | binding result [2] |
| --- | --- | --- |
| B1 | binds |  |
| B2 |  | binds |
